A short description of this data set: label from the status in PepcDB records.
In the case of “SQPQQGKQYEVLPVSLQEYNLAPLTEAFALTCGHCRSMEEFVPQIESLTEQKVEKMHVTFNESAQISAIIFYTAVMQLDATPDKAFMADLFAAVQMGADATAEERQQAVEKAFESRNLISPYHLDEAQQEKLFEYITKAESITTRGQINSVPAFIVNGKYQVITGGHDSVEAMAETINYLLKQ”, the protein production result is “not failed”.

Turning to “MAALWAAEAALTPGEVQAELASDLARTTVTTILSRLYDKGVVDRRGVAMVTTPCRTPRGSPPGACIPSSTVTLTGRPSWPASSPSSIRTTNSFCASYWRPTRDDRPLLIPLLLPFVMPLLARRALDRLAPATALWALTAAALVLAGACVTALGALVLTGLLKLPAFAALGELAHPLRTPTGYLVLPAAAIATGLLTIGAWTLAHSALRQTRAFRTARAEADRRPTAGDLCVVDSPHPDAYALPGRPHRIVVTTAMLRSLKPDERDALFAHERAHNQGATTASWSIGSAACRPGRMVSYLGACGARRAGPMRGRRGPRAIPVVCRPVPRSCRGRIVGVSLPSARW”, the protein production entry was “failed”.

Turning to “RYPTNNFGNCTGCSATFSVLKKRRSCSNCGNSFCSRCCSFKVPKSSMGATAPEAQRETVFVCASCNQTLSK”, the protein production result is “not failed”.

Regarding “MSKLFPGEVFANTADFDTGIRQLLPRYDEMLEVICRCLPLTSRRILDLGCGTGELSLKILQRCPDAQVIALDYSPRMLKFAQNKIVASGYKERWTGLQADFGDWAINPETLNIGNEFDACVSSLAIHHLYDEMKLQLFQRIAASLTPNGCFWNADPILPESPTLAEIYQAAREEWVSEQGSNFTEVRAKVGDSSPQGYSNPDQLATLDTHLQMLTKSGFTTVAVPWKYYGLAVFGGWVKLEHHHHHH”, the protein production result is “not failed”.

Regarding “MVKCMKPGKAVILLQGRYTGKKAVIVKSFDDGTVEKKYGHCLVAGLKKYPSKVIRKDSAKKTAKKSRVKCFFKVINYQHVMPTRYTLDLDLKNVVSADAISSKDKKVTALKEAKAKFEERFKTGKNRWFFTKLRF”, the protein production result is recorded as “failed”.

In the case of “NTRLRRTKEVNEILGIDPVDKNLLVNQFVKWDPKEDKHIEVSMPKKLEKMADFLGVSVQEVYDEMLSRKRYLELMLKRGIRNYKEVTRYIHAYYRNPELAMTKME”, the protein production entry is given as “failed”.

On to “MSALDCPAGTVLFRAGQDCPGFLRLDEGSIRVTLTAANGREVVLYRVRPGDVCLQTFACLTEGRSYSAEGVAETRVRGHLMSHADFRTALARDEAFRTEVMQAVARRFADFEHLVEDVALTGFDTRLARVLLRLAKGDTVAATHEALAAETASGRAFVSRRLAEFARQGLVELARGRVTLCDRSGLERIAAEER”, for which the protein production entry is “not failed”.

Take “MLSLKKSLNPPSSFGWSDPDPCKWTHIVCTGTKRVTRIQIGHSGLQGTLSPDLRNLSELERLELQWNNISGPVPSLSGLASLQVLMLSNNNFDSIPSDVFQGLTSLQSVEIDNNPFKSWEIPESLRNASALQNFSANSANVSGSLPGFLGPDEFPGLSILHLAFNNLEGELPMSLAGSQVQSLWLNGQKLTGDITVLQNMTGLKEVWLHSNKFSGPLPDFSGLKELESLSLRDNSFTGPVPASLLSLESLKVVNLTNNHLQGPVPVFKSSVSVDLDKDSNSFCLSSPGECDPRVKSLLLIASSFDYPPRLAESWKGNDPCTNWIGIACSNGNITVISLEKMELTGTISPEFGAIKSLQRIILGINNLTGMIPQELTTLPNLKTLDVSSNKLFGKVPGFRSNVVVNTNGNPDIGKDKSSLSSPGSSSPSGGSGSGINGDKDRRGMKSSTFIGIIVGSVLGGLLSIFLIGLLVFCWYKKRQKRFSGSESSNAVVVHPRHSGSDNESVKITVAGSSVSVGGISDTYTLPGTSEVGDNIQMVEAGNMLISIQVLRSVTNNFSSDNILGSGGFGVVYKGELHDGTKIAVKRMENGVIAGKGFAEFKSEIAVLTKVRHRHLVTLLGYCLDGNEKLLVYEYMPQGTLSRHLFEWSEEGLKPLLWKQRLTLALDVARGVEYLHGLAHQSFIHRDLKPSNILLGDDMRAKVADFGLVRLAPEGKGSIETRIAGTFGYLAPEYAVTGRVTTKVDVYSFGVILMELITGRKSLDESQPEESIHLVSWFKRMYINKEASFKKAIDTTIDLDEETLASVHTVAELAGHCCAREPYQRPDMGHAVNILSSLVELWKPSDQNPEDIYGIDLDMSLPQALKKWQAYEGRSDLESSTSSLLPSLDNTQMSIPTRPYGFAESFTSVDGR”: the protein production entry is reported as “not failed”.

In the case of “SEEEEYEQIPQENPPEELSQDPVLELSGGLREKEQKTPRRLRLILMGKTGSGKSATGNSILGRDVFESKLSTRPVTKTSQRRSREWAGKELEVIDTPNILSPQVSPEVADAICQAIVLSAPGPHAVLLVTQLGRFTDEDQQVVRRLQEVFGVGVLGHTILVFTRKEDLAGGSLEDYVRETNNQALAWLDVTLARRHCGFNNRAQGEEQEAQLRELMEKVEAIMWENEGDYYSNKAYQYTQQNFRLKELQERQVSQGQGSEDVPGEESWLEGLSQIQKESEEAHRCLLGKADL”, the protein production result is given as “not failed”.

With “YALTEGEDYLVLDKPIPQEQPGKIEVLEFFGYFCVHCHHFDPLLLKLGKALPSDTYLRTEHVVWRPEMLGLARMAAAVKLSGLKYQANSAVFKAVYEQKIRLENRAVAGKWALSQKGFDGKKLMRAYDSPEAAAVALKMQKLTEQYGIDSTPTVIVGGKYRVIFNNGFDGGVHTIKELVAK”, the protein production result was “failed”.

As to “MTSSTETTATTPQVAVNDIGNEEAFLAAIDETIKYFNDGDIVDGVIVKVDRDEVLLDIGYKTEGVIPSRELSIKHDVDPNEVVAVGDEIEALVLQKEDKEGRLILSKKRAQYERAWGTIEKIKEEDGIVTGTVIEVVKGGLILDIGLRGFLPASLVEMRRVRDLQPYVGKELEAKIIELDKNRNNVVLSRRAWLEQTQSEVRQTFLTTLQKGQVRSGVVSSIVNFGAFVDLGGVDGLVHVSELSWKHIDHPSEVVEVGQEVTVEVLDVDMDRERVSLSLKATQEDPWQQFARTHQIGQVVPGKVTKLVPFGAFVRVDEGIEGLVHISELAERHVEIPEQVVQVNDEIFVKVIDIDLERRRISLSLKQANEAFGADPSTVEFDPTLYGMAASYDDQGNYIYPEGFDPETNDWLEGYETQREAWETQYAEAQTRFEQHQAQVIKSREADEKAAAEGVDTAGAAPAASGGGGGGSYSSEGGDNSGALASDEALAALREKLAGGQS”, the protein production result is “failed”.

Consider “MEMKTKKAVLMSSLALSIIAFLLALILMQPNSAGYPEVPAVPTYVLFGLSAASFAVFIYEYFTATRT”, for which the protein production result is listed as “failed”.

Consider “MNIMRTAMLLAFMTALFMGVGYLVGGSNGMVIALLMAGGLNFFSYWNSDKIVLRMYGAREVDQHSSPVYYKIVSDLARRASLPQPKVYIIDNAQPNAFATGRNPQNAAVAASTGLLNQLSAEEVAGVMAHELAHIEHRDTLTMTLTATIAGAISMLGNFAFFMGGQRHSSENSHSTGAIGGLLALFVAPFAAMLVQMAISRTREYAADRRGAEICGNPLWLASALSKIAGGGHTVYNEEAEHNPATAHMFIINPLRGEGADSLFSTHPATANRIAALRRQAEEMKGARVENMGWNEKIGLHKKSSDFRDLNSGAQTSVFNEESTVQRIKKRPSWLRYGDSKRPRS”, for which the protein production entry is “failed”.

With “MTERLLVGVIVGSHGVRGLVRVKSFTQDEMALCDYGPLSDETGTRRFAVEVRNQAKGVVICQIPGVSDRTAADALKGTRLFLDRAALPADALEEDEYYHADLIGLPVDLVDGGRLGVVHSVHDFGAGDMLEVTLAQGRRSVLLPFTKAVVPLVDVKAGRLVADPPLGLLDDTRPPAGVEGEVEEDPGVGIDEDGDGKGGASLEHHHHHH”, the protein production entry was “not failed”.

“QEIASRLPYFCSGCPHNSSTKVPDGSRAYAGIGCHYMVQWMDRNTQGFTHMGGEGANWIGEAPFSKTKHVFQNLGDGTYNHSGVQAIRAALAAGTNITYKILFNDAVAMTGGQENEGDLSAPRIVAELKAMGVKELAVVYDDKEDVDRSQFPSGIPFHERAELMQVQKRFREIAGVSAIVYIQTCAAEKRRRRKRGTFPDPDKRAFINTDICEGCGDCGVQSNCVSIVPKETELGRKRAIDQSSCNKDFSCVKGFCPSFVTVQGAKIRKEATAEIDL”: the protein production entry was “failed”.

“MDRDLLRQSLNCHGSSLLSLLRSEQQDNPHFRSLLGSAAEPARGPPPQHPLQGRKEKRVDNIEIQKFISKKADLLFALSWKSDAPATSEINEDSEDHYAIMPPLEQFMEIPSMDRRELFFRDIERGDIVIGRISSIREFGFFMVLICLGSGIMRDIAHLEITALCPLRDVPSHSNHGDPLSYYQTGDIIRAGIKDIDRYHEKLAVSLYSSSLPPHLSGIKLGVISSEELPLYYRRSVELNSNSLESYENVMQSSLGFVNPGVVEFLLEKLGIDESNPPSLMRGLQSKNFSEDDFASALRKKQSASWALKCVKIGVDYFKVGRHVDAMNEYNKALEIDKQNVEALVARGALYATKGSLNKAIEDFELALENCPTHRNARKYLCQTLVERGGQLEEEEKFLNAESYYKKALALDETFKDAEDALQKLHKYMQVIPYFLLEI”: the protein production result is recorded as “failed”.

Consider “MPKWTPYKRHPGVYEYQTKKGKRFGVRRTYDDAMGERKEFSKSGFIHWQDADIEIKRFEAKLVSGEVSGSLANRMTIDQYYQQMAKRKMKMGIWRESTARANGNFYSKYLKPAFGKTPLQDVSRAKYQRFLDELSQSGLALTTVHTIDAVMKSIMNAAEFEDVIDKNRLRGMQINGKAPRNKDLEPHSFELWLNAAKTNLDKYEMALIITATLGLRRGEVMGLRNESIKISHDQINDADVAQISIDMQRNTNELNGGPLKTKSSYRTIWAFGKTVDHLKYAMITADNLRQRNNIQAEKHWLWLNNDGNPLHPTHLNRLMRRVSNRSGVEVYPHLLRHYFATQAIAANKPQIDVMHYLGHKNLQMTADYTRSTKAASLNVFNSIDKFL”, for which the protein production entry is “failed”.

For “MYDMVREKTYYFMIVERITIMTEKMTRMTQFVKEEIANAITHGIGAILSIPALIILIIHASKHGTASAVVAFTVYGVSMFLLYLFSTLLHSIHHPKVEKLFTILDHSAIYLLIAGTYTPFLLITLRGPLGWTLLAIIWTLAIGGIIFKIFFVRRFIKASTLCYIIMGWLIIVAIKPLYENLTGHGFSLLLAGGILYSVGAIFFLWEKLPFNHAIWHLFVLGGSAMMFFCVLFYVLPTAS”, the protein production entry is on record as “failed”.

For “MKSACSIITASIVLYKSKPDIIRDVITSFFSDTVTKKKLILIDNSPTDSLRVLQEERPEDIQYFFNNRNIGFGSAHNIGIREAARFNPSYHLILNPDVQFGPEVVPTLASYMDENPDIGLLMPQVYYPNGELQHLCKLFPRPWDVMLRRFVPYRSYRERNNERFELRNWSYDTIQDIPSLSGCFMFARMDILREVGGFDERFFMYAEDLDLCRRIGQVSRTVFFPKVSIMHTYAKGSYHDAKLLRHHIVSLIRYFNKWGWLFDAERRRVNRACLAVLRNQTTVKKD”, the protein production result is “failed”.

On to “PLKEQKVINTANIKTNSKLDLAEYENGLINIATQQFDTESHVLQLNQYIPEKLIDELVAKVEAPVLTNIIEQDYFGKQNSNELSLSGVMIGLAMSSSVSNEEAMSKGTEVAKQLIEAINKNDKYNKSPITFAIFKQESTSSLKNGTYIASATVQKNDTNLGNWSTIDEKSYSYPSDEFTQAHGEDNTKINNFAKEIKGFSNGDFIPVNAKVSYKKDQMDTLNMNIVIKYNGKTELMALTQLAAQGMLDKLPKDAKVQLQIKSESKIEAVIIKEKNSDKPFV”, for which the protein production result is listed as “failed”.

Turning to “MVTPIAVVGPTASGKSALGIALAHKLDGEVVNVDSMQLYKGMDIGTAKLTVEEREGIAHHQLDVWDVTETASVARFQSDAVADVEDIMSRGKTPILVGGSMLYVQSLVDDWQFPPTDSAVRARFEARLADIGVEALHAELTQLDPEAAAVIESNDPRRTVRALEVIELTGQPFQASQPPKDAPPRWGTRIIGLKTTPEWLNPRIEQRTARMFEQGFVAEVEHLVQQGLIADSTAGRAIGYSQVLAAMAGEMTWEDAFERTVTGTRRYVRRQRSWFNRDHRVSWVDASGDPTAQALEILGLQLEHHHHHH”, the protein production result was “not failed”.

The values above are taken from a protein production outcome set (Wang et al. 2014).
